Results published in the nanobody polyreactivity screen of Harvey et al. (2022).

Experiment: yeast display, Sf9 membrane polyspecificity reagent, FACS + sequencing; frameworks hold sequencing errors
In short: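 Using colony PCR, genes from sorted yeast display clones were amplified, then sequenced on MiSeq at 2 × 250 and filtered by CDR length. The clones had been stained with 10% biotinylated, detergent-solubilized Sf9 membrane reagent for 1 hour at 4 °C and sorted by FACS into low and high (top ~1%) gates on anti-HA and streptavidin fluorescence. Polyreactivity labels come from the gate of origin.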

Q: Which “polyreactivity (PSR sort gate)” value does the source give for “QVQLVESGGGLVQAGGSLRLTCAASGSIFYWYAMGWYRQAPGKERELVAAISSSGSTNYADSVKGRFTISRDNAKNTVYLQMNSLKPEDTAVYYCGAYRTGYNGWGYGYWGQGTQVTVSS” here?
A: high polyreactivity

Q: For “QVQLVESGGGLVQAGGSLRLSCAASGSIFYTYAMGWYRQAPGKERELVAAISRSGGSTYYADSVKGRFTISRDNAKNTVYVQMNSLKPEETAVYYCAAVSYRGRGYWGQGTQVTVSS”, which “polyreactivity (PSR sort gate)” value is on record?
A: high polyreactivity

Q: Which “polyreactivity (PSR sort gate)” value does the source give for “QVQLVESGGGLVQAGGSLRLSCAASGSTFKRYTMGWYRQAPGKERELVAAISTSSGSTYFADSVKGRFTISRDNAKISVYLQMNSLKPEDSAVYYCDAVRLRQTYPKYNYWGQGTQVTVSS” here?
A: high polyreactivity

Q: For “QVQLVESGGGLFQEGGSLRLSCAASGIISKYYAMGWYRQAPGKERELVAAITRSGTSTYYADSVKGRFTISRDNAKNSVYLQMNSLKPEDTAVYYCAAVSGGRTPRYDYWGQGTQVTVSS”, which “polyreactivity (PSR sort gate)” value is on record?
A: high polyreactivity

Q: Which “polyreactivity (PSR sort gate)” value does the source give for “QVQLVESGGGLVQAGGSLRLSCAASGFIFNNYGMGWSRQAPGKERELVATISRGASTNYADSVKGRFTISRDNAKNTVYLQMNSLKPEDTAVYYCAKDYGDWGQGTQVTVSS” here?
A: low polyreactivity

Q: With “QVQLVESGGGLVQAGGSLRLSCAASGRTLEIYTMGLNRQAPGKERELVAAISGGSTYYADSVKGRFTISRDNSKNTVYLQMNSLKPEDTAVYYCAARPYVFRYHRWTVDWRYDYWGQGTQVTVSS” as the sequence, how does the “polyreactivity (PSR sort gate)” value read?
A: low polyreactivity

Q: With “QVQLVESGGGLVQAGGSLRLSCAASGSTFKRYAMGWYRQAPGKERELVAAISSGGTTNYADSVKGRFTISRDNAKNTVYLQMNSLKPEDTAVYYCNRKFRYSSHTNYYYWGQGTQVTVSS” as the sequence, how does the “polyreactivity (PSR sort gate)” value read?
A: high polyreactivity

Q: Which “polyreactivity (PSR sort gate)” value does the source give for “QVQLVESGGGLVQAGGSLRFSCAASGRTFYRYAMGWYRQAPGKERVLVAAISGSGGSTYYADSVKGRFTISRDNAKNTVYLQMNSLKPEDTAVYYCAADGPSHHGDDDYWGQGTQVTVSS” here?
A: low polyreactivity

Q: With “QVQLVESGGGLVQAGGSLRLSCAASGSTFHWYAMGWYRQAPGKERELVAVITWSGGSTYYADSVKGRFTISRDNAKNTVYLQMNSLKPEDTAVYYCARDWYRYKLWLFRGQDGDYWGQGTQVTVSS” as the sequence, how does the “polyreactivity (PSR sort gate)” value read?
A: low polyreactivity

Q: Which “polyreactivity (PSR sort gate)” value does the source give for “QVQLVESGGGLVQAGGSLRLSCAASGRTFAWYTMGWSRQEPGKERELVAAISGSGGSTYYADSVKGRFTISRDNAKNTVYLQMNSLKPEDTAVYYCARRVDSYYGHTRYYYWGQGTQVTVSS” here?
A: high polyreactivity

Q: Which “polyreactivity (PSR sort gate)” value does the source give for “QVQLVESGGGLVQAGGSLRLSCAASGNTFASYVMGWYRQAPGNERELVAAISWSGGSTYYADSVKGRFTISRDNAKNTVYLQMNSLKPEDTAVYYCNAKRNVRYGYWGQGTQVTVSS” here?
A: high polyreactivity

Q: For “QVQLEESGGGLVQAGGSLRLSCAASVSIFFVNAMGWYRQAPGKERELVASISRDGSTNYADSVKGRFTISRDNAKNTVYLQMNSLKPEVTAVYYCNGLSADWYPEEDYWGQGTQVTVSS”, which “polyreactivity (PSR sort gate)” value is on record?
A: low polyreactivity

Q: With “QVQLVESGGGLVQAGGSLRLSCAASGRIFLSYAMGWYRQAPGKEREFVAAITSSGGSTSYADSVKGRFTISRDNAKNTVYLQMNSLKPEDTAVYYCNARAYIFGQLKYDYWGQGTQVTVAS” as the sequence, how does the “polyreactivity (PSR sort gate)” value read?
A: low polyreactivity

Q: With “QVQLVESGGGLVQAGGSLRLSCAASGRIFARNAMGSYRQAPGKERELVATIRVGGGSTYYADSVKGRFTISRDNAKNTVYLQMNSLKPEDTAVYYCAVRQLYSYPGDRRGYYWGQGTQVTVSS” as the sequence, how does the “polyreactivity (PSR sort gate)” value read?
A: low polyreactivity

Q: With “QVQLVESGGGLVQAGGSLRLSCAASGINFNYYAMGWYRQAPGKERELVAAISSTGSTYYSDSVKGRFTISRDNAKNTVYLQMNSLKPEDTAVYYCAAEWWDTGFANYGYDYWGQGTQVTVSS” as the sequence, how does the “polyreactivity (PSR sort gate)” value read?
A: high polyreactivity

Q: Which “polyreactivity (PSR sort gate)” value does the source give for “QVQLVESGGGLVQAGGSLRLSCAASGSIFTFNAMGWYRQAPGKERELVASINWSGGSTYYADSVKGRFTISRDNAKNTVYLQMNSLKPEDTAVYYCNKRRNGYGSQFYYPYDYWGQGTQVTVSS” here?
A: low polyreactivity

Q: Which “polyreactivity (PSR sort gate)” value does the source give for “QVQLVESAGGLVQAGGSLRLICAASGGTFSTYAIGWYRQAPGKEREFVAAITRSGTSTYYADSVKGRFTISRDNAKNTVYLQMNGLNPEDTAVYYCAAGVYSFRYDYWGQGTQVTVSS” here?
A: low polyreactivity

Q: With “QVQLVESGGGLVQAGGSLRLSCAASGSTFYTHAMGWYRQAPGKERELVAAISASVGSTYYADSVKGRFTISRDNAKNTVYLQMNSLKPEDTAVYYCAADVWASRRYDYWGQGTQVTVSS” as the sequence, how does the “polyreactivity (PSR sort gate)” value read?
A: low polyreactivity

Q: With “QVQLVESGGGLVQAGGSLRLSCAASGYIFFNYGMGWYRQAPGKERELVAASTTIDGTTYYADSVKGRFTISRDNAKHTVYLQMNSLKPEDTAVYYCNADLYWLWYGEFDYWGQGTQVTVSS” as the sequence, how does the “polyreactivity (PSR sort gate)” value read?
A: high polyreactivity

Q: Which “polyreactivity (PSR sort gate)” value does the source give for “QVQLVESGGALVQAGGSLRLSCAASAITYRYYAMGWNRQAPGKERELVATITRSGGSTYYADSVKGRFTISRDNAKNTVYLQMNSLKPEDTAVYYCAKGLYSTRYYYWGQGTQVTVSS” here?
A: high polyreactivity

Q: For “QVQLVESGGGLVQAGGSLRLSCAASGSIFFKYTLGWYRQAPGKERELVAAISYSGGRTYYADSVKGRFTISRDTAKNTVYLQMNSLKPEDTAVYDGATRDEITHGDRMDYWGQGTQVTVSS”, which “polyreactivity (PSR sort gate)” value is on record?
A: low polyreactivity

Q: With “QVQLVESGGGLVQAGGSLRLSCAASGSTFVAYVMGWYRQAPGKERELVASITSGGITNYADSVKGRFTISRDNAKNTVYLQMNSLKPEDTAVKGDYWGQGTQVTVSS” as the sequence, how does the “polyreactivity (PSR sort gate)” value read?
A: low polyreactivity

Q: Which “polyreactivity (PSR sort gate)” value does the source give for “QVQLVESGGGLVQAGGSLRLSCAASGRTFKYYTMGWYRQAPGKERELVATISSSATSTYYADSVKGRFTISRDNAKNTVYLQMNSLKPEDTAVYYCAVERDYGWPIYIRWHFDYWGQGTQVTVSS” here?
A: low polyreactivity

Q: With “QVQLVESGGGLVQAGGSLRLSCAASGITFYGYAMGWYIQAPGKERELVASITSTGSTNYADSVKGRFTISRDNAKNTVYLQMNSLKPEDTAVYYCAARYREVYRSKRKLGYWGQGTQVTVSS” as the sequence, how does the “polyreactivity (PSR sort gate)” value read?
A: high polyreactivity

Q: Which “polyreactivity (PSR sort gate)” value does the source give for “QVQLVESGGGLVQAGGSLRLSCAASGLNFYWYAMGWYRQAPGKERELFAAINWSGGRTHYADSVKGRFTMSRDNANNTVYFQMNCLKPEDTAVYYCAASPYWFTRYYPKTRETMDYWGQGTQVTVST” here?
A: high polyreactivity

Q: For “QVQLVESGGGLVQAGGSLRLSCAASGRTFGGYALGWYRQAPGKERELVAAISSGGGTYADSVKGRFTISRDNAKNTVYIQMNSLKPEDTAVYYCAAGYRWYWASKPTVHYYYWGPGTQVTVSS”, which “polyreactivity (PSR sort gate)” value is on record?
A: high polyreactivity

Q: For “QVQLVESGGGLVQAGGSLRLSCAASGRIFNIYAMGWYRQAPGKERELVAAISVSGTRTYYADSVKGRFTISRDNAKNTVYLQMNSLKPEDTAVYYCAADSYGGVWTEHMYYWGQGTQVTVSS”, which “polyreactivity (PSR sort gate)” value is on record?
A: low polyreactivity

Q: With “QVQLVESGGGLVQAGGSLRLSCAASGSIFPFNAMGWYRPAPGKERELVAAITSGGSTNYADSVKGRFTISRDNAKNTVYLQMNSLKPEDTADYYCAADWRYWRWAFDYWGQGTQVTVSS” as the sequence, how does the “polyreactivity (PSR sort gate)” value read?
A: high polyreactivity

Q: For “QVHLVESGGGLVQAGGSLRLSCAASGRTFPGYAMGWYRQAPGKERELVATITGNAGSTYYADSVKGRFTISRDNAKNTVYLQMNSLKPEDTAVYYCAAGRRRPYVRAYRGTDYWGQGTQVTVSS”, which “polyreactivity (PSR sort gate)” value is on record?
A: low polyreactivity

Q: Which “polyreactivity (PSR sort gate)” value does the source give for “QVHLVESGGGLVQARGTRRLSCAASGYTFPRYTMGWYRQAPGKERELVAAISGSSGSTYYADSVTGRFTISRDNATNTVYLQLNSLKPEDTAVYYCNKYYGFHKIKEYDYWGQGTQGTVSS” here?
A: high polyreactivity

Q: For “QVQLVESGGGLVQAGGSLRLSCAASGSTFYGYAMGWYRQAPGKERELVAAITRSGGSTYYADSVKGRFTISRDNAKYTVYLQMNSLKPEDTEVYYCNKYGYKGGVGYDYWGQGTQVTVSS”, which “polyreactivity (PSR sort gate)” value is on record?
A: high polyreactivity

Q: With “QVQLVGSGGGLLQAGASLRLSCAASGRIFRAYAMGWYRQAPGKERELVAAISWRSGSTYYADSVKGRFTISRDNAKTTVYLQMNSLKPEDTAVYYCAAYTNRVVNGYGYWGQGTQVTVSS” as the sequence, how does the “polyreactivity (PSR sort gate)” value read?
A: high polyreactivity

Q: For “QVQLVESGGGLDQAGGSLRLSCAASGFTFPLYAMGWYRQAPGKERELVAVISRSGGSTYYADSVKGRFTISRDNAKNTVYLQMNSLTPEDTAVYYCAARLVPRSPERGNYDYWGQGTQVTVSS”, which “polyreactivity (PSR sort gate)” value is on record?
A: high polyreactivity

Q: For “QVQLVESGGGLVQAGGSLRLSCAASGFIFVPYAMGWYRQAPGKERELVAAITWSGASTYYADSVKGRFTISRDNAKNTVYLQMNRLKPEDTAVYYCAAENWLPQTGGYYWYDYWGQGTQVTVSS”, which “polyreactivity (PSR sort gate)” value is on record?
A: high polyreactivity

Q: With “QVQLVESGGGLVQAGGSLRLSCAASGRTFYGYAMGWYREAPGKERELVASISWSTGSTHYADSVKGRFTISRDNAKNTVYLQMNSLKPEDTAVYYCAAPFWRDSYVQIDYDYWGQGTQVTVSS” as the sequence, how does the “polyreactivity (PSR sort gate)” value read?
A: low polyreactivity

Q: For “QVQLVESGGGLVQAGGSLRLSCAASGRIFYRYVMGWYRQAPGKERELVAAITSSGGSTYYADSVKGRFTISRDNAKNTVYLQMNSLNPEDTAVYYCAADRYTRYRYNYWGQGTQVTVSS”, which “polyreactivity (PSR sort gate)” value is on record?
A: high polyreactivity

Q: For “QVQLVQSCRVLLQARGSHTLSCADSGTTFGINANGCYTHSPGKERELVAAITFISGSTNYADSVKGRFTISRDNAKNTVYLQMNSLKPEDTAVYYCAADSVYYAGYDVDYWGQGTQVTVSS”, which “polyreactivity (PSR sort gate)” value is on record?
A: low polyreactivity

Q: With “QVQLVESGGGLVQAGGSLRLTCAASGIIFSYNAMGWYRQAPGKERELVAAIRWSGDSTYYADSVKGRFTISRDIAKNTVYLQMNSMKPEDTAVYYCAAEFFLSYPRYEYWGQGTQVTVSS” as the sequence, how does the “polyreactivity (PSR sort gate)” value read?
A: low polyreactivity

Q: For “QVQLVESGGGLVQAGGSLRLSCAASGSTSVVNARGWSRPAPGKERELVAAISTGGASTYYADSVKGRYTISRDNAKNTVYLQMNSLKPEDTAVYYCAADLGYEYDYWGQCTQVTVSS”, which “polyreactivity (PSR sort gate)” value is on record?
A: high polyreactivity

Q: With “QVQLVESGGGLVQAGGSLRLSCAASGRTFRANTMGWYRQAPGKERELVAAITWSGASTYYADSVKGRFTISRDNAKNTVYLQMNSLKPEDTAVYYCNAGWDSGIVQSDETVYKYDYWGQGTQVTVSS” as the sequence, how does the “polyreactivity (PSR sort gate)” value read?
A: low polyreactivity

Q: Which “polyreactivity (PSR sort gate)” value does the source give for “QDQLVESGGGLVQAGGSLRLSCAASGFIFYSNAMGWYRQEPGKERELVAAITSGGGSTYYADSVKGRFTISRDTAKNTVYLQMNSLKPEDTAVDYCAVSIGRYPYRYGYWGQGTQVTVSS” here?
A: high polyreactivity
